Data published in the DeepSol protein solubility set.

test: soluble on expression in E. coli; label from the status in PepcDB or PDB records

Sequence	soluble on expression in E. coli
MAHHHHHHMSSSDLIKEDDYVFISGRGLNKIVQIKKDVTVRLGRSGAALATTLIGIRYGGVCHLDHARKKFVESDEYPDLDITEVGDGEEVKDNRDLVDDNTNQQLSNDEVAAIRRDKGLDELLQALVEKSASYRTKTNFAQEKYLKKKQKKYGTLFKVERVTVDNLAELHVPTINPSDNTSEDARCLRLRADTVALILHHSDVHHNSRVILYEKTNGVLPASLLTRMSDEGRIFQILDKNAQPSPTTAVKVLKLPLVKERWKAVPRNRGFLEGLEEPDKDSARDTAEAAEKNAAGAAAGKGLQRQDICASSTQWVKGLEARQLLLESSADSLVICDDEAPQRAVADLLPFLAFGGHIVVYSPFLEDLTGIFLALRDDCVNLQISETWYRHHQVLPKRTHPTVNMSTAAGYLLTAIKVCRNPAAPRLTAAVTAPALSATTHAGHKRSATEELNGMASKKSATREASDEGNAN	not soluble
MSLDWHTLLTRERLGKALYSADELGRSPFHKDHDRIIFSGAFRRLGRKTQVHPVSSNDHIHTRLTHSLEVSCVGRSLGMRVGETLRDNLPDWCAPSDLGMIVQSACLAHDIGNPPFGHSGEDAIRHWFQQAAGRGWLDDMSDDERADFLNFEGNAQGFRVLTQLEYHQFDGGTRLTYATLGTYLKYPWSARHADALGYKKHKFGSYQSELPLLEQIARKLGLPQLEHQRWARHPLVYLMEAADDICYALIDLEDGLEMELLQYAEVEALLLDLVGEDLPETYRQLGPRDSRRRKLAILRGKAIEHLTNAAAHAFVEQQQALLAGQLPGDLVEHMHGPAKRCVLQAKDMARNKIFQDKRKTLHEIGAYTTLEILLNTFCGAALEQHGGRTPSFKSRRVLDLIGNNAPDPHASLHSAFLRMIDFIAGMTDSYASEMAREMTGRSSPTEGHHHHHH	soluble
MGSDKIHHHHHHAREAEFKKIKESWTLQADGTQVYRQSKVLTLYTHTAMNRTYGESFITYDPRYQTLQIHESYTRQKDGNIVKTPANALVEVLPSAAANAPAFNALREMVVVHTGLELGATIYLDYSITTKPGYLPGIQICRLLEHSSPVKEYEISITVPRGQHLEYALNNHKEKASVTESEGMKQVSWTLKNLPALSREPQVSVIGGDLPLLTATTEEKPLSFLTSQWQPEGDAGIRALAGKLTAGAKDDKEKVTAIRDYVIDNLYYSSLPLAESGYRIRPAAEVIRSAYGTEAEKANLMAALLKAAGLKAGIGAVCAPSENTASLGVGSIRELFVWTDAGGSQQALSLKGKTPSAVSWQKDYAYVASLTQPFELNLPPVTLRKDYALQPDAANAKDGYLVFTLPVERGSLAGSQYVRFNSKRTSNLLLPGLADESFTYTVDTPAGMEPVTRPMEKKMDNAVGTLTISIRPEGAKTRVIRSLKLKKQMIRPADYAAFRQLMTEYGAVDGLTLVYRKPLP	not soluble
VLDPLGPGAPVLVAGGRVTGQAVAAVLTRFGATPTVCDDDPVMLRPHAERGLPTVSSSDAVQQITGYALVVASPGFSPATPLLAAAAAAGVPIWGDVELAWRLDAAGCYGPPRSWLVVTGTNGKTTTTSMLHAMLIAGGRRAVLCGNIGSAVLDVLDEPAELLAVELSSFQLHWAPSLRPEAGAVLNIAEDHLDWHATMAEYTAAKARVLTGGVAVAGLDDSRAAALLDGSPAQVRVGFRLGEPAARELGVRDAHLVDRAFSDDLTLLPVASIPVPGPVGVLDALAAAALARSVGVPAGAIADAVTSFRVGRHRAEVVAVADGITYVDDSKATNPHAARASVLAYPRVVWIAGGLLKGASLHAEVAAMASRLVGAVLIGRDRAAVAEALSRHAPDVPVVQVVAGEDTGMPATVEVPVACVLDVAKDDKAGETVGAAVMTAAVAAARRMAQPGDTVLLAPAGASFDQFTGYADRGEAFATAVRAVIR	not soluble
MSLKKTEKAYEVKRAFNNNIVLVDDDEKEIILFAKGIGFNCKKGSIIPENTNIEKIFTIQDENNIANFRRVVGSNDEKFIAFCEELILEISRDFSEELNEIIHIGLIDHISFAIERMKKGEILRNPFLVEIETLYPKEFEAATKMVKKLEDFTGVSIVDDEIGFIAMHIHSARTTGKISHTIKFTYIANTAVEYIEDAFNIEVDRTSLSYARFISHLRFAIERLINNTPVKNELLSIIKLKYPESFKVAEEIGKAINEDFSLEVAEDEIGYLALHVERIRKNEGHHHHHH	soluble
MSLENKENLVVIDLAIAEDSIQKKNIVYDKNGQNHFDVISAFIKSIRGSDPDATLYWLANMVEAGEDPNFIFRRLLISACEDIGLADPNAIVVVQSCCDAFDRVGFPEGLFFLSQASLYLAISPKSNSTKSIFKAMEAIKATNVSLVPNHLKNNASNYLNPHNYQGKWLQQEYLPTDLQGIKFWKPKDSGWEKNKYEDLPKKQKSEGHHHHHH	soluble
MGSDKIHHHHHHMKKGIQLVALLLTVVMSSCTGGKDKAAVKQEDEKPRVKVADVTARPVDQIQDYTATVEAEVKNNIAPSSPVRIDRILVEVGDRVSKGQKLVQMDAANLTQTKLQLDNQKIEFNRIDELYKVGGASKSEWDAAKMQLDVKQTAYDNLVENTFLLSPINGVITARNYDNGDMYSGGSPVLVVEQITPVKLMINVSETYFTKVKKGEPVDVKLDVYGDELFKGTISLIYPTIDATTRTFQIEIKLDNKDQRVRPGMFARATLNFGTADNVVVPDLAIVKQAGSGDRYVYVYKDGKVSYNKVELGRRMGSEYELKSGVPDNSQVVVAGQARLINGTEVEIEK	not soluble
SNADRRYKWQTVVSEQLVGAGFNEILNNSLTAGSYYEGLKSHPREMAVELMNPLSQELNCMRQTLLFGGLETLSHNLRRKHLSLYLFEWGKCYRFHAAKRTDETPLAAYAEDDRLGIWICGQRVHNSWAHPEEPTSVFELKAVVEQVLCRVGIETGAYTLKTADNDLYASAMEVKTRSGKLLGTFGTVSTELIKRFEIEQPVYFAELLWDALM	soluble
MLHITLHQLKIFESVARLLNFTHAAEELHLTQPAVSIQIKRLEEMVALPLFEQIGKRVHLTEAGKELFHYSRGITRQLADMELALDELKGLERGKLSISVVSTANYFVPNLLAKFCQRYPGITISLHVSNRENVLKQLSDNIMDLAIMGQPPEGLDITSESFMENPLVIIAPPEHPLCGQKQIPVKRLEQEIFLVREPGSGTRNAMERFFAHEKISIQKGMEADTAEAIKQAIQAGMGLGIMSLHTIRLELEAGRLKILDIQGLPIMRYWNVVHQKNKRLSNISSVFKQFLLNEAADLVALEYPHRNTT	not soluble
GPHMSVSESAVFAYESSVHSTNVLLSLNDQRKKDVLCDVTVLVEGQRFRAHRSVLAACSSYFHSRIVGQTDAELTVTLPEEVTVKGFEPLIQFAYTAKLILSKDNVDEVCRCVEFLSVHNIEESCFQFLKFKFLDSTS	soluble
MVIDFNRLNPGSTPATTGRTGSTAAGRPDATGADKAGQAATSAPKSGESVQISETAQNMQKVTDQLQTLPVVDNDKVARIKQAIADGTYQVDSERVASKLLDFESQR	not soluble
MEKEKSLMKKQSKKSKKQNIEINYLDLIPVRSEELHWHKDIKGRVILDVENTGWFNKIAQTVFNKPQYTKVHLDAQGTFIWPLIDGKRTVTDIAALVKEEFGEAAEPLYPRIIKYFQIVESYHFIKFANMPSK	not soluble
WQENMLIPMMAINEDNLWVHQKYGYAIPRRNGKTEVVYILELWALHKGLKILHTAHRISTSHSSFEKVKKYLEMSGYVDGEDFISNKAKGQERIEFKSSGSVIQFRTRTSNGGLGEGFDLLIIDEAQEYTAEQESALKYTVTDSDNPMTIMCGTPPTMVSTGTVFESYRKECLKGDRRYSGWAEWSVDEMQPIHDVKSWYVANPSMGYHLNERKIEAELGEDEIDHNIQRLGYWPSFNQKSVISEKEWAKLKVEQVPELKSKLFVGIKFGQDGNNVSLSIAARASENKVFVEAIDCLSVRNGTQWIINFLKSADIAKVVVDGASGQELLAQEMREHGLKKPELPKVAEIITANTMWEQGIMQETICHNDQPSLTAVVTNCEKRQIGSNGGFGYKSLYDDRDISLMDSALLAHWICYTTKPKRKQRTSC	not soluble
GSADAPRDRHRTIVVGGDRDYPPYEFIDQNGKPAGYNVELTRAIAEVMGMTVEFRLGAWSEMFSALKSGRVDVLQGISWSEKRARQIDFTPPHTIVYHAIFARRDSPPAAGLEDLRGRKVALHRDGIMHEYLAERGYGKDLVLTPTPADALRLLAAGGCDYAVVAMVPGMYIIRENRLTNLVPVARSIAAQRYGYAVRQGDAELLARFSEGLAILRKTGQYEAIRAKWLGVLEP	soluble
MKKALSLLTVSALSIGMLSACGPKDSGKKEESKAKKDYDLLVWEDDKKGVGLEPAVKSFEEKYKVKVKVVEMQMTDQVKKLRLDGPAGTGPDVVTLPHDQIGNAVTEGLLSEVKADDAVKSKFTDSSIEAQTYNGKLYGLPKAIETPVFIYNKKLMPKAPETMDELFNFSKEFTKDGKYGFLALGDNFYFANAFMAGMGGYVFGEKDGKPNASDVGLNNSGAVQGAEYLQKWYKEKLFPKGIIGESGGPAADGLFNEGKAASIMNGPWAFQAMEKNGIDYGVAPMPKLPNGQPLKTFVGVKGWHVTSFSKQNDLATKFTEWVTNEENAKIRFEKTKEIPPVKAVMEDPIIKDNEAAKAVATQSENGIPMPNIPEMQEVWKPAGDALQLVVTDKEAPKAALDSAVKQIKGNIEANHSKQK	not soluble
MSSETFYKTQQDLRKAESHASHAAGGNTPANSNVSAMKVTPNLLIQFGDTAANSTNQSIVDEHTDKAKAIEERKANLPLPDQPPVASDWQSADQRAVNVGSGGVQGSVSGESNTALRDPATAGSSARMSGEELHKETQPTGNVGRQATEGLSDIPGDAKARK	not soluble
MAIVDPIVTGLNAGWLHTDASQLQANQQFEADVVIVGTGAGGGVAAEILTQAGLSVIMIEAGPLKSSSDFNMEERVAYPNLYQQAAAMKTADKAIGIFQGRAVGGSTTINWTTSIRTPKEALAFWAQHKSVAGLDPEALAPWFDQMEQRLNIHEWNYEPNRNNGALKQGCINLGWDYTVIKRNVAGCWNTGYCGMGCPVNAKQSMLVTTIPSALEKGAQLISRAKVVKIEHHNGQVFALKAQALDVNLRPTAVELLFKAKHYILSAGAIHTPTLMMRSEVPDPHQLLGKRTFLHPTVLSGGVFADTINAHSGAPQSIYSDEFVWKNGADGELGYKLEVPPVHPILIASKTIGYGVSHAELMAQFNQLQVTIALIRDGYHPDSQGGQVHLTPTGFSLDYPLTDAFWRAVRRAYASMAELQFSAGALKVLPISDGMPYLSSWKEAKESIAQMDLAPLKTVVASAHVMGGCPLGEDEKLSMVNSYGQSHYLNNLSVMDGSIFPTSLGANPQLSIYGITARNATALAQKLKDGREPQLEHHHHHH	not soluble
MGSDKIHHHHHHVAIALDFGTSNTVVARWNTETQSPELLSLTNLSQRGSQTPPLIPSLLYVEEATMPRLLAGQAVRDQGRDRPQDSRFFRSFKRGIGAEVTGFLPDLDGVCPDFEQVGQWFLDTVIAALEPGDRDGADLVLTVPVDSFENYRLWLSRVAQQWPVDRVRLIDEPTAAALGYGVEQQSPILVFDFGGGTLDLALIELGQTTSKVRSPLGFILKWGDQSFGDNSGQRPQLARVLAKAGRNLGGNDLDDWLTDYFAKQLNTAPTRVLTRLAERIKIQLSTTPEASEVYFDDETLQSLQLQLDRSQFQQILHDRGFFEQLDELLESVLQQGRRQGINPDAIAAVLMVGGSAQIPAVQDWLAGYFPTEKIRCDRPFEAVACGALQLAQGLEVRDFLYHSYGIRYWNHRSQRHDWHPLIPPGQAYPMAEPVELVLGASVAQQPSMELVLGELSQDRGATEIFFDGDRLITRRIGPDRTAAKALNDSETARTIARLDPPGDPGVDRLRLQFWVDRDRFLRVTIEDLLTLETVVENQVVIQL	not soluble
